Biological target: 6HisRsmA (RsmAxcc) (Xanthomonas citri subsp. citri strain 306) (UniProt Q8PLP9)
Test: EMSA
Conditions: 10 mM HEPES pH 7.3, 20 mM KCl, 1 mM MgCl2, 1 mM DTT, 5% glycerol, 0.1 µg/µL yeast tRNA, 20 U RNasin, 25 °C 20 min; 5% native PAGE

Sequence of 6HisRsmA (RsmAxcc) (Xanthomonas citri subsp. citri strain 306) (Q8PLP9 whole entry): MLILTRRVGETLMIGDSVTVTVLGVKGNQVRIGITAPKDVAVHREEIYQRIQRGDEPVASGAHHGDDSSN

Q: How did the binding signal (fold less shift than hrpG 1-189) turn out when hrpG 54-189 was run?
A: 8

Source: publication PMC3937308
